Test results published in article PMC9439264 (Nature Communications, 2022).

Assays:
[1] = target: T1, HAhr^CA (head region of CA4/2009 HA, degraded HA monomer in the crystal) (Influenza A virus A/California/04/2009 …, strain); assay: crystal structure; settings: both partners purified
T1 chain: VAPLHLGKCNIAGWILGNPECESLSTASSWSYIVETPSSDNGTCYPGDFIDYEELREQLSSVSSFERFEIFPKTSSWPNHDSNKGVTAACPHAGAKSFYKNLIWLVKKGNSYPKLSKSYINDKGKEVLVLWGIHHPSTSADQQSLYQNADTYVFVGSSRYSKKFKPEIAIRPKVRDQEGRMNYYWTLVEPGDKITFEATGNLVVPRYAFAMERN

[2] = target: T2, HA ectodomain of A/California/04/2009 (H1N1), recombinant (Influenza A virus A/California/04/2009 …, strain); assay: SEC; settings: both partners purified
T2 construct: source: baculovirus (pAcGP67B), H5 insect cells, supernatant purified with Ni-NTA

B1: 12H5 Fab (mouse antibody) (Fab, V domains shown)
VH: QIQLVQSGPELKKPGETVRISCKASGYTFTKNGMNWVQQAPGKGLKWVGWINTYTGEPSYADDFKGRFAFSLETSASTAYLQINNLKNEDMAAYFCARMVRDAMDFWGQGTSVTVSS
VL: DIVLTQSPASLAVSLGQRATISCKASQSVDFDGYNYLNWYQQKPGQPPKLLIYAASNLESGIPARFSGSGSGTDFTLNIHPVEEEDAATYFCQQSNEDPYTFGGGTKLEIK
notes: source: papain digestion of mAb 12H5 (mouse ascites, protein A), purified with DEAE-5PW
binding result [1]: binds | binding result [2]: binds
